{"source": "paper PMC6239281", "about": "“Same but different: Comparison of two system-specific molecular chaperones for the maturation of formate dehydrogenases” (PLoS ONE, 2018)", "molecules": {"B1": {"name": "Escherichia coli FdhD (natural protein, E. coli)", "chain": "MKKTQRKEIENVTNITGVRQIELWRRDDLQHPRLDEVAEEVPVALVYNGISHVVMMASPKDLEYFALGFSLSEGIIESPRDIFGMDVVPSCNGLEVQIELSSRRFMGLKERRRALAGRTGCGVCGVEQLNDIGKPVQPLPFTQTFDLNKLDDALRHLNDFQPVGQLTGCTHAAAWMLPSGELVGGHEDVGRHVALDKLLGRRSQEGESWQQGAVLVSSRASYEMVQKSAMCGVEILFAVSAATTLAVEVAERCNLTLVGFCKPGRATVYTHPQRLSN", "notes": "FdhD, FDH-specific chaperone of Escherichia coli; fdhD gene in pTrcHis (pNB10); His6-tagged FdhD has a molecular mass of 32.7 kDa; also called FdhD wild-type; FdhD WT; source: E. coli ΔfdhD strain (plasmid pNB10), purified (Ni-NTA)"}, "B2": {"name": "Escherichia coli FdhD-C121A (natural protein, E. coli)", "chain": "B1 chain with C121A", "notes": "FdhD of Escherichia coli with C121A; fdhD^C121A gene in pTrcHis (pNB11); Made from pNB10 by site-directed mutagenesis; also called His6-FdhD^C121A; source: E. coli ΔfdhD strain (plasmid pNB11), purified (Ni-NTA)"}, "B3": {"name": "Escherichia coli FdhD-C124A (natural protein, E. coli)", "chain": "B1 chain with C124A", "notes": "FdhD of Escherichia coli with C124A; fdhD^C124A gene in pTrcHis (pNB12); Made from pNB10 by site-directed mutagenesis; also called His6-FdhD^C124A; source: E. coli ΔfdhD strain (plasmid pNB12), purified (Ni-NTA)"}, "B4": {"name": "Escherichia coli FdhD-C121A/C124A (natural protein, E. coli)", "chain": "B1 chain with C121A, C124A", "notes": "FdhD of Escherichia coli with C121A and C124A; fdhD^C121A/C124A gene in pTrcHis (pNB13); Made from pNB10 by site-directed mutagenesis; also called FdhD-C121/C124A; double variant; source: E. coli ΔfdhD strain (plasmid pNB13), purified (Ni-NTA)"}}, "key": {"[1]": {"molecular_target": "Rhodobacter capsulatus FdsC-C107A (R. capsulatus)", "test": "SEC; size exclusion chromatography of the Ni-NTA purified chaperones alone; data not shown"}, "[2]": {"molecular_target": "Rhodobacter capsulatus FdsC (R. capsulatus)", "test": "SEC; size exclusion chromatography of the Ni-NTA purified chaperones alone; data not shown"}, "[3]": {"molecular_target": "Rhodobacter capsulatus FdsC-C104A (R. capsulatus)", "test": "SEC; size exclusion chromatography of the Ni-NTA purified chaperones alone; data not shown"}, "[4]": {"molecular_target": "Rhodobacter capsulatus FdsC-C104A/C107A (R. capsulatus)", "test": "SEC; size exclusion chromatography of the Ni-NTA purified chaperones alone; data not shown"}, "[5]": {"molecular_target": "the molecule itself", "test": "SEC; size exclusion chromatography of the Ni-NTA purified chaperones alone; data not shown"}, "[6]": {"molecular_target": "T1, Escherichia coli L-cysteine desulfurase IscS (E. coli, UniProt P0A6B7 1-404)", "T1 construct": "IscS, L-cysteine desulfurase of Escherichia coli; iscS gene cloned into NcoI/BamHI sites of pET15b (pSL209); also called E. coli IscS; source: recombinant (plasmid pSL209), expressed and purified as described previously [33, 46]", "T1 sequence (P0A6B7 whole entry)": "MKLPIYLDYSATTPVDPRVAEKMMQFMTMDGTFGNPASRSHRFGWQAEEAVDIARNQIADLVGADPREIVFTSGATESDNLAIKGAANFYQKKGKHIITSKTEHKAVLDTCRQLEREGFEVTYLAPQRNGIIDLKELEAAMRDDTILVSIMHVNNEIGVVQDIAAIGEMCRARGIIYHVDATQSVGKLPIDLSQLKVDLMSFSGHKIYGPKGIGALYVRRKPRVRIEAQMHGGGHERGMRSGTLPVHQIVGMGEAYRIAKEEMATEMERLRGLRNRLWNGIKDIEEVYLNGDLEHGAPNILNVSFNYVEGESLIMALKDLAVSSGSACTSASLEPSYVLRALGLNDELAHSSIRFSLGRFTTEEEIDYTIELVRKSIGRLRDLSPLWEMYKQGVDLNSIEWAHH", "test": "SEC; 20 μM IscS mixed with 40 μM FdhD or FdsC (or double cysteine variant), 30 min at room temperature, Superdex 200 (Increase), 100 mM potassium phosphate pH 8.0 (legend: with 100 mM NaCl, 10 mM β-mercaptoethanol), 280 nm; fractions on 15% SDS-PAGE", "conditions": "both partners purified"}}, "note": "Numbering of substitutions follows the chain as printed. Names may count otherwise."}
{"molecule": "Rhodobacter capsulatus FdsC-C107A (natural protein)", "values": [{"measurement": "stoichiometry N", "setting": "[1]", "result": 2}]}
{"molecule": "Rhodobacter capsulatus FdsC (natural protein)", "values": [{"measurement": "stoichiometry N", "setting": "[2]", "result": 2}]}
{"molecule": "Rhodobacter capsulatus FdsC-C104A (natural protein)", "values": [{"measurement": "stoichiometry N", "setting": "[3]", "result": 2}]}
{"molecule": "Rhodobacter capsulatus FdsC-C104A/C107A (natural protein)", "values": [{"measurement": "stoichiometry N", "setting": "[4]", "result": 2}]}
{"molecule": "B1", "values": [{"measurement": "stoichiometry N", "setting": "[5]", "result": 2}, {"measurement": "binding result", "setting": "[6]", "result": "binds"}]}
{"molecule": "B2", "values": [{"measurement": "stoichiometry N", "setting": "[5]", "result": 2}]}
{"molecule": "B3", "values": [{"measurement": "stoichiometry N", "setting": "[5]", "result": 2}]}
{"molecule": "B4", "values": [{"measurement": "stoichiometry N", "setting": "[5]", "result": 2}, {"measurement": "binding result", "setting": "[6]", "result": "binds"}]}
